Measured values taken from US20240270826A1 (NATIONAL RESEARCH COUNCIL OF CANADA, published 2024).

B1: NRCoV2-1d VHH-Fc (Fc fusion)
chain: EVQLVESGGGSVQPGGSLRLSCAASGSTLDYYAIGWFRQAPGKEREWVSSVSSSDGNTLYADSVKGRFTISRDNAKNTVYLQMNSLKAEDTAVYVCAADYSMRPFAVGRWHRDYEYWGQGTQVTVSS
notes: bivalent VHH-Fc
B2: NRCoV2-07 VHH-Fc (Fc fusion)
chain: QVQLVQSGGGLVQPGGSLRLSCAASGVTLDYYAIGWFRQAPGKEREAVSCISSNGRRNHYVASVRGRFTISRDNAKSTVYLQMNSLKPEDTAVYYCAAVQDVHGDNYYCTSPNEYNVWGQGTQVTVSS
notes: bivalent VHH-Fc
B3: NRCoV2-12 VHH-Fc (Fc fusion)
chain: EVQLQQSGGGLVQAGGSLRLSCAASGRTFRNYVMGWFRQAPQAPGKDHEFVAAISWGGTEIYYADSVKGRFTISRDNAKNTVYLQMNSLKPEDTAVYYCAADRGLSYYYTRTTEYNYWGQGTQVTVSS
notes: bivalent VHH-Fc
B4: NRCoV2-18 VHH-Fc (Fc fusion)
chain: EVQLVESGGGLVQAGGSLRLSCVASGITISGYNMAWWRQTRGKQTERVAFINSGGSTTYSDSVKGRFTISRDNGKNTAYLQMNSLNAEDTADYFCSLHTSHDYWGQGTQVTVSS
notes: bivalent VHH-Fc
B5: NRCoV2-20 VHH-Fc (Fc fusion)
chain: EVQLQQSGGGLVQPGGSLRLSCAASGRTFSNYVVGWFRQAPQAPGKDHEFVAVISGSDTETYYADSVKGRFTISRDNAKNTVYLQMNSLKPEDTAVYYCAADRGMSYYYTRATEYYYWGQGTQVTVSS
notes: bivalent VHH-Fc
B6: NRCoV2-MRed04 VHH-Fc (Fc fusion)
chain: EVQLVESGGGLVQPGRSLRLSCAASGNSFSISTMGWFRQAPGKERELVASIWSDTTTSYADSVKGRFTISTDNTRTKVYLQMSSLNPEDTAVYYCAADRGFVVRGQYDYWGQGTQVTVSS
notes: bivalent VHH-Fc
B7: NRCoV2-02 VHH-Fc (Fc fusion)
chain: EVQLVESGGGLVQAGGSLRLSCAASGFTFSNYAMNWVRQAPGKGLEWVSGISGRGDDTRYADSVKGRFTISRDNAKNTLFLQMRSLRPEDTGVYRCTKGPDLYYFGSGYSDRGQGTQVTVSS
notes: bivalent VHH-Fc
B8: NRCoV2-05 VHH-Fc (Fc fusion)
chain: EVKLVQSGGGLVQPGGSLRLSCAASGFIFSNYAMNWVRQAPGKGLEWVSGINSGGGDTRYADSVKGRFTVSRDNAKNTLYLQMNSLKPEDTGVYYCSKGPVSSYYGSGYDYRGQGTQVTVSS
notes: bivalent VHH-Fc
B9: NRCoV2-14 VHH-Fc (Fc fusion)
chain: EVQLVSSGGGLVQAGGSLRLSCEASGTTFSHYAVGWYRQAPGKQREWVASISVFGSTTYGGSVAGRFTISRDNDKNTVDLQMNSLKPEDTAVYYCHAVNADIGGDYWGQGTQVTVSS
notes: bivalent VHH-Fc
B10: NRCoV2-17 VHH-Fc (Fc fusion)
chain: EVQLQQSGGGLVQTGGSLRLSCAAAGSPFSQLAMSWYRQISGKERAWVASISPTGNRSYSKIAKGRFTISRDNAKNTVTLQMTSLKPEDTAAYICQAANVNGGDYWGQGTQVTVSS
notes: bivalent VHH-Fc
B11: NRCoV2-10 VHH-Fc (Fc fusion)
chain: QLQLQESGGGLVQPGGSLTLSCAASGNTFSRSNMHWYRQAPGAQREWVAAISSRGISTYAYSAKGRFTISRDNAKNTVSLQMNSLKPEDTAVYYCYAADDLGDYWGQGTQVTVSS
notes: bivalent VHH-Fc
B12: NRCoV2-15 VHH-Fc (Fc fusion)
chain: EVQLVSSGGGLVEAGGSLRLSCIASGSTSGRNTMGWFRQAPGKQREWVAIVSTSGATNYAGSVKGRFTLSRDNAKNAVYLQMNNLKPEDTAVYYCYAAYGGGGDYWGQGTQVTVSS
notes: bivalent VHH-Fc
B13: NRCoV2-MRed05 VHH-Fc (Fc fusion)
chain: EVQLVESGGGLVQPGGSLRLSCAASGFTLDYYAIGWFRQAPGKEREGVSCISSSDGSTLYADSVKGRFTISRDNAKNTVYLQMNSLKPEDTAVYYCATGPQAYYSGSYYFQCPQAGMDYWGKGTQVTVSS
notes: bivalent VHH-Fc
B14: NRCoV2-04 VHH-Fc (Fc fusion)
chain: AVQLVDSGGGLVQPGGSLRLSCAASGSPFSNVVMAWYRQAPGKQRERVAFISGGGIADYIMSVKGRFTISRDNAKNTVYLQMNSLKPEDTAVYYCWSSYESTWGQGTQVTVSS
notes: bivalent VHH-Fc
B15: NRCoV2-11 VHH-Fc (Fc fusion)
chain: EVQLVSSGGGLVQPGGSLRLSCAASGSSLDSYSVSWFRQAPGKEREWISFISRYYSSTYYTDSVKGRFTTSRDGDQKTVHLQMNSLKPEDTAVYYCAARSRDFSSPFSATDTYTSWGQGTQVTVSS
notes: bivalent VHH-Fc
B16: NRCoV2-SR01 VHH-Fc (Fc fusion)
chain: EVQLVQSGGGSVQAGGSLRLSCVASGFTFDNYAIGWFRQAPGKEREGVSCISGNGGVTIYADSVKGRFTISRDNAKNLVYLQMNSLKPEDTAVYYCAATGIRSTWSVYGCSRLAGPYDYWGQGTQVTVSS
notes: bivalent VHH-Fc
B17: NRCoV2-SR13 VHH-Fc (Fc fusion)
chain: EVQLVESGGGLVTTGGSLRLSCATSGSRFGSKHMAWYRQAPGKQRDLVAAISSGGSTHYGSSVKGRFTISRDNAKSTVYLQMNSLNPEDTAVFYCNMGGWDYRSNTYIPGSRSDYWGQGTQVTVSS
notes: bivalent VHH-Fc
B18: NRCoV2-SR02 VHH-Fc (Fc fusion)
chain: EVQLVDSGGGLVQAGGSLRLSCTASEFTLNYYSIGWFRQSPGKEREGVSCIRYSGGGIDYADSVKGRFTISRDNAKNTVYLTMNSLKPEDTAVYYCAADRLYSRACPTAGGRNYWGQGTQVTVSS
notes: bivalent VHH-Fc
B19: NRCoV2-20 VHH-Fc (Fc fusion)
chain: B5 chain
notes: bivalent VHH-Fc
B20: NRCoV2-12 VHH-Fc (Fc fusion)
chain: B3 chain
notes: bivalent VHH-Fc
B21: NRCoV2-14 VHH-Fc (Fc fusion)
chain: B9 chain
notes: bivalent VHH-Fc
B22: NRCoV2-17 VHH-Fc (Fc fusion)
chain: B10 chain
notes: bivalent VHH-Fc
B23: NRCoV2-10 VHH-Fc (Fc fusion)
chain: B11 chain
notes: bivalent VHH-Fc
B24: NRCoV2-15 VHH-Fc (Fc fusion)
chain: B12 chain
notes: bivalent VHH-Fc
B25: NRCoV2-04 VHH-Fc (Fc fusion)
chain: B14 chain
notes: bivalent VHH-Fc
B26: NRCoV2-11 VHH-Fc (Fc fusion)
chain: B15 chain
notes: bivalent VHH-Fc
B27: NRCoV2-SR01 VHH-Fc (Fc fusion)
chain: B16 chain
notes: bivalent VHH-Fc

Columns and labels:
[1] = molecular target: SARS-CoV-2 spike protein S on live virus, Alpha variant (SARS-CoV-2 (Alpha variant), UniProt P0DTC2 14-1273); assay: cell-based or functional assay
[2] = molecular target: Human SARS-CoV-2 Omicron (B.1.1.529) S (SARS-CoV-2 (Omicron variant)); assay: flow cytometry SVNA: VHH-Fc inhibits S binding to ACE2 on Vero E6 cells

Binder	LVNA IC50 [1] [nM]	IC50 [2] [nM]
B1	0.37	–
B2	0.42	–
B3	1.35	–
B4	2.82	–
B5	1.94	–
B6	4.5	–
B7	0.09	–
B8	0.03	–
B9	0.88	–
B10	0.61	–
B11	0.47	–
B12	0.16	–
B13	0.13	–
B14	2.3	–
B15	2.3	–
B16	3.77	–
B17	~100	–
B18	9.05	–
B19	–	13.1
B20	–	17.2
B21	–	5.2
B22	–	3.4
B23	–	4.3
B24	–	3
B25	–	18.4
B26	–	8.8
B27	–	4.4
